The record followed here is paper PMC12556802, “Rules of engagement: Determinants of chemokine receptor activation and selectivity by CCL27 and CCL28” (The Journal of Biological Chemistry, 2025).

Substrate in experiment [1]: T1, CC chemokine receptor 10 (CCR10) on L1.2 cells (human) (UniProt P46092)
T1 sequence: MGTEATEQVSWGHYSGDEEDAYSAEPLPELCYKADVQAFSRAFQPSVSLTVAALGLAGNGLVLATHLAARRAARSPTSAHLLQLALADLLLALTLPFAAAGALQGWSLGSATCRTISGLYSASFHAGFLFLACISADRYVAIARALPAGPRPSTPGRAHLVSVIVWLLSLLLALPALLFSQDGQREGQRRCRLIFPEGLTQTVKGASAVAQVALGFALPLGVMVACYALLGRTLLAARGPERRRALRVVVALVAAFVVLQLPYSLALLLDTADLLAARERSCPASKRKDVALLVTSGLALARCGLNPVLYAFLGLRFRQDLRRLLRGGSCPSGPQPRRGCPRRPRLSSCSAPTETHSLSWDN

Experiment [2] deals with T2, CCR10-RlucII (human, UniProt P46092 1-362).
T2 sequence (looked up): T1 sequence
Put plainly: cell-based or functional assay.

Experiment [3] deals with T2, CCR10-RlucII.
Substrate in experiment [4]: T1, 
This is another data set of the same source.

Substrate in experiment [5]: T1, 
This is another data set of the same source.

Numbering of substitutions follows the chain as printed. In names and notes the source's numbering stands. Like-named read-outs stand apart in the source and are kept apart here.

B1: F1A-CCL27 (ligand)
chain: ALLPPSTACCTQLYRKPLSDKLLRKVIQVELQEADGDCHLQAFVLHLAQRSICIHPQNPSLSQWFEHQERKLHGTLPKLNFGMLRKMG
As for B1, in experiment [1], the migration of L1.2/CCR10 cells, dose-response (0.1 nM to 1 μM), reduction in efficacy relative to WT CCL27 was 35%; the migration of L1.2/CCR10 cells, dose-response (0.1 nM to 1 μM), reduction in potency relative to WT CCL27 is 10 fold; the transwell migration of L1.2/CCR10 cells at 50 nM chemokine, reduction compared to WT CCL27 was found to be 85%.

B2: CCL27 (ligand)
chain: B1 chain with A1F
Turning to B2, in the experiment with CCR10-RlucII [2], the “β-arrestin2 recruitment to CCR10-RlucII by BRET in HEK293 cells, EC50 of the chemokine” value was 89 nM.

B3: NT28-CCL27 (ligand)
chain: ILPIASSCCTQLYRKPLSDKLLRKVIQVELQEADGDCHLQAFVLHLAQRSICIHPQNPSLSQWFEHQERKLHGTLPKLNFGMLRKMG
For the molecule B3, in the experiment with CCR10-RlucII [2], the “β-arrestin2 recruitment to CCR10-RlucII by BRET in HEK293 cells, efficacy relative to WT CCL27” value was 1.5 fold and the “β-arrestin2 recruitment to CCR10-RlucII by BRET in HEK293 cells, potency relative to WT CCL27” value stood at 3.5 fold.

B4: F-CCL27 (ligand)
chain: FFLLPPSTACCTQLYRKPLSDKLLRKVIQVELQEADGDCHLQAFVLHLAQRSICIHPQNPSLSQWFEHQERKLHGTLPKLNFGMLRKMG
In the experiment with CCR10-RlucII [3], B4 registered a β-arrestin2 recruitment to CCR10-RlucII by BRET in HEK293 cells, EC50 of the chemokine of 19 nM and a β-arrestin2 recruitment to CCR10-RlucII by BRET in HEK293 cells, Emax relative to WT-CCL27 of 1.8 fold. For the same molecule, in experiment [4], the internalization of CCR10 on L1.2/CCR10 cells (3.1-100 nM chemokine, 45 min, 37 °C), percent of receptor remaining on the surface at 3.1 nM was determined as 30%. Moreover, in experiment [5], the bare filter chemotaxis of L1.2/CCR10 cells, efficacy relative to WT CCL27 amounted to 1.1 fold; the bare filter chemotaxis of L1.2/CCR10 cells, potency relative to WT CCL27 worked out at 10 fold; the transendothelial migration of L1.2/CCR10 cells, efficacy relative to WT CCL27 was 2.7 fold; the transendothelial migration of L1.2/CCR10 cells, potency relative to WT CCL27 came out at 3 fold.
